Data as given in US20160237119A1 (UNIVERSITY OF TOKYO, published 2016).
Values belong to the binder of their own block, whether it stands above or below them. Bridges are numbered along the chain shown (N, C = ends). Primed or numbered codes have the meaning given here. Where no end group is shown, it is not given here. [ ]: non-standard residue; d: D form. NMeR = CN[C@@H](CCCNC(=N)N)C(=O)O; NMeF = CN[C@@H](Cc1ccccc1)C(=O)O; NMeT = CN[C@H](C(=O)O)[C@@H](C)O; NMeV = CN[C@H](C(=O)O)C(C)C; NMeC = CN[C@@H](CS)C(=O)O; BMH′ = not defined here

How the values were obtained:
c-Met-Fc chimera protein [1] = target: T1, c-Met-Fc chimera protein (UniProt P08581 25-932, limits assumed); assay: SPR presumed (Biacore as in 9-1; method not given), c-Met-Fc on chip
T1 construct: Captured on the SPR chip by an anti-IgG antibody; not shown: Fc part
T1 sequence (P08581 25-932 limits assumed, change not shown): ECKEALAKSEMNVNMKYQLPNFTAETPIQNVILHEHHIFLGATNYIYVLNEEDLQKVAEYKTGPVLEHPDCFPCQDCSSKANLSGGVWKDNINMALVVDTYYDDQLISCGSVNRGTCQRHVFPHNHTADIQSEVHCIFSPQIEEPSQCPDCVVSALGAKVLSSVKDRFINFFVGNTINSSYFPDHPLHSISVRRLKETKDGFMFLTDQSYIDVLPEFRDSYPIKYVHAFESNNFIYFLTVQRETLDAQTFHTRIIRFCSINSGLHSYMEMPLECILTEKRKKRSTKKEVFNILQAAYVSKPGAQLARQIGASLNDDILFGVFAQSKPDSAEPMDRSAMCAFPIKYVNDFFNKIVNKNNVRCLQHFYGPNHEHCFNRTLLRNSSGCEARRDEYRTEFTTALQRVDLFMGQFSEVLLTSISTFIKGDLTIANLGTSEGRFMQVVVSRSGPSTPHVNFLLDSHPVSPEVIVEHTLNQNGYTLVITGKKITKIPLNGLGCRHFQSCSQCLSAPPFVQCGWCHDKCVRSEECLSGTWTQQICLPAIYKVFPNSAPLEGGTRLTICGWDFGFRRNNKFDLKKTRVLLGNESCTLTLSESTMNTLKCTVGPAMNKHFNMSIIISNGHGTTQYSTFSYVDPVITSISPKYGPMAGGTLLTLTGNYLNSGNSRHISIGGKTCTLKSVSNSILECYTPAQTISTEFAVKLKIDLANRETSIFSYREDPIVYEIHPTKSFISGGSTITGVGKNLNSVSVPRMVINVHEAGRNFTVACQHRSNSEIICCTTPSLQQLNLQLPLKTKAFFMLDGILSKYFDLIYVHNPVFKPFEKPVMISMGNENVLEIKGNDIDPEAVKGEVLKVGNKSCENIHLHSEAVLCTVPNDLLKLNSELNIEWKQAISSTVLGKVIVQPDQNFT

c-Met-Fc chimera protein [2] = target: T1, c-Met-Fc chimera protein; assay: as above; remark: listed apart in the source
c-Met-Fc chimera protein [3] = target: T1, c-Met-Fc chimera protein; assay: SPR (Biacore), c-Met-Fc captured by anti-IgG on CM5, single-cycle kinetics
Experimental: (§1) As a sensor chip, Sensor Chip CM5 was used and an anti-IgG antibody was immobilized on a measurement lane and a control lane by using Human Antibody Capture Kit.
(§2) On the measurement lane was immobilized c-Met-Fc, while on the control lane was immobilized Fc protein.
(§3) As a running buffer, HBS-EP+ buffer containing 0.1% DMSO was used and a dissociation constant of the thioether macrocyclic peptide was calculated at 5 different concentrations by using the single-kinetics method.

c-Met-Fc chimera protein [4] = target: T1, c-Met-Fc chimera protein; assay: as above; remark: listed apart in the source
Experimental: as §1, §2, §3

Kd (c-Met-Fc chimera protein [1]): 34 nM
koff (c-Met-Fc chimera protein [1]): 0.0041 s⁻¹
kon (c-Met-Fc chimera protein [1]): 120000 M⁻¹ s⁻¹
Kd (c-Met-Fc chimera protein [2]): 34 nM
koff (c-Met-Fc chimera protein [2]): 0.0041 s⁻¹
kon (c-Met-Fc chimera protein [2]): 120000 M⁻¹ s⁻¹
Binder: {CH2CO}-YRQFN[NMeR]RTHEVWNLDCG (thioether N-16) [D4-3-N6]

Kd (c-Met-Fc chimera protein [3]): 0.45 nM
koff (c-Met-Fc chimera protein [3]): 0.00091 s⁻¹
kon (c-Met-Fc chimera protein [3]): 2e+06 M⁻¹ s⁻¹
B1: D4-3 dimeric peptide, linker BMH (peptide)
peptide: {CH2CO}-YRQFNRRTHEVWNLDCGC(BMH′)
modifications: thioether N-16; not fully specified (residue 1); also: dimer: two copies joined by BMH at Cys18
notes: Two macrocyclic peptides joined through their C-terminal Cys by BMH; also called D4-3 BMH

Kd (c-Met-Fc chimera protein [3]): 0.9 nM
koff (c-Met-Fc chimera protein [3]): 0.0011 s⁻¹
kon (c-Met-Fc chimera protein [3]): 1.2e+06 M⁻¹ s⁻¹
B2: D4-3 dimeric peptide, linker Bis-MAL-PEG11 (peptide)
peptide: {CH2CO}-YRQFNRRTHEVWNLDCGC(Bis‑MAL‑PEG11)
modifications: thioether N-16; not fully specified (residue 1); also: dimer: two copies joined by Bis-MAL-PEG11 at Cys18
notes: Two macrocyclic peptides joined through their C-terminal Cys by Bis-MAL-PEG11; also called D4-3 Bis-MAL-PEG11

Kd (c-Met-Fc chimera protein [4]): 5.4 nM
koff (c-Met-Fc chimera protein [4]): 0.012 s⁻¹
kon (c-Met-Fc chimera protein [4]): 2.3e+06 M⁻¹ s⁻¹
Kd (c-Met-Fc chimera protein [3]): 5.4 nM
koff (c-Met-Fc chimera protein [3]): 0.012 s⁻¹
kon (c-Met-Fc chimera protein [3]): 2.3e+06 M⁻¹ s⁻¹
Binder: {CH2CO}-YISWNEFNSPNWRFITCG (thioether N-17, also called L5-2 peptide; L5-2 Monomer) [L5-2]

Kd (c-Met-Fc chimera protein [3]): 0.81 nM
koff (c-Met-Fc chimera protein [3]): 0.0004 s⁻¹
kon (c-Met-Fc chimera protein [3]): 490000 M⁻¹ s⁻¹
B3: D4-3NMe dimeric peptide, linker Bis-MAL-PEG11 (peptide)
peptide: {CH2CO}-YRQFN[NMeR]RTHEVWNLD[NMeC]GC(Bis‑MAL‑PEG11)
modifications: thioether N-16; also: dimer via Bis-MAL-PEG11
notes: also called D4-3NMe Bis-MAL-PEG11; dimerized N-methylated D4-3 peptide

Kd (c-Met-Fc chimera protein [4]): 5.2 nM
koff (c-Met-Fc chimera protein [4]): 0.0021 s⁻¹
kon (c-Met-Fc chimera protein [4]): 390000 M⁻¹ s⁻¹
Kd (c-Met-Fc chimera protein [3]): 5.2 nM
koff (c-Met-Fc chimera protein [3]): 0.0021 s⁻¹
kon (c-Met-Fc chimera protein [3]): 390000 M⁻¹ s⁻¹
Kd (c-Met-Fc chimera protein [2]): 5.2 nM
koff (c-Met-Fc chimera protein [2]): 0.0021 s⁻¹
kon (c-Met-Fc chimera protein [2]): 390000 M⁻¹ s⁻¹
B4: D4-3NMe (peptide)
peptide: {CH2CO}-YRQFN[NMeR]RTHEVWNLD[NMeC]G
modifications: thioether N-16
notes: also called NMe (N6 + N16); N-methylated D4-3

binding result (c-Met-Fc chimera protein [3]): no binding
B5: D4-3scr dimeric peptide, linker BMH (peptide)
peptide: {CH2CO}-YERVNHLFRNQTWDRCGC(BMH′)
modifications: thioether N-16; also: dimer: two copies joined by BMH at Cys18
notes: Negative control dimer; also called D4-3scr BMH

Kd (c-Met-Fc chimera protein [3]): 0.64 nM
koff (c-Met-Fc chimera protein [3]): 0.0007 s⁻¹
kon (c-Met-Fc chimera protein [3]): 1.1e+06 M⁻¹ s⁻¹
B6: D4-3 dimeric peptide, linker Bis-MAL-PEG3 (peptide)
peptide: {CH2CO}-YRQFNRRTHEVWNLDCGC(Bis‑MAL‑PEG3)
modifications: thioether N-16; not fully specified (residue 1); also: dimer: two copies joined by Bis-MAL-PEG3 at Cys18
notes: Two macrocyclic peptides joined through their C-terminal Cys by Bis-MAL-PEG3; also called D4-3 Bis-MAL-PEG3

Kd (c-Met-Fc chimera protein [4]): 3.4 nM
koff (c-Met-Fc chimera protein [4]): 0.008 s⁻¹
kon (c-Met-Fc chimera protein [4]): 2.4e+06 M⁻¹ s⁻¹
Kd (c-Met-Fc chimera protein [3]): 3.4 nM
koff (c-Met-Fc chimera protein [3]): 0.008 s⁻¹
kon (c-Met-Fc chimera protein [3]): 2.4e+06 M⁻¹ s⁻¹
Kd (c-Met-Fc chimera protein [1]): 8.5 nM
koff (c-Met-Fc chimera protein [1]): 0.011 s⁻¹
kon (c-Met-Fc chimera protein [1]): 1.3e+06 M⁻¹ s⁻¹
Kd (c-Met-Fc chimera protein [2]): 8.5 nM
koff (c-Met-Fc chimera protein [2]): 0.011 s⁻¹
kon (c-Met-Fc chimera protein [2]): 1.3e+06 M⁻¹ s⁻¹
Binder: {CH2CO}-YRQFNRRTHEVWNLDCG (thioether N-16; not fully specified, also called D4-3 peptide; D4-3 Monomer) [D4-3]

Kd (c-Met-Fc chimera protein [1]): 79 nM
koff (c-Met-Fc chimera protein [1]): 0.0096 s⁻¹
kon (c-Met-Fc chimera protein [1]): 120000 M⁻¹ s⁻¹
Binder: {CH2CO}-YRQ[NMeF]NRRTHEVWNLDCG (thioether N-16 (inferred)) [N4, N-methylated D4-3 peptide]

Kd (c-Met-Fc chimera protein [1]): 290 nM
koff (c-Met-Fc chimera protein [1]): 0.0059 s⁻¹
kon (c-Met-Fc chimera protein [1]): 21000 M⁻¹ s⁻¹
B7: N14, N-methylated D4-3 peptide (peptide)
peptide: {CH2CO}-YRQFNRRTHEVWNLDCG
modifications: thioether N-16; not fully specified (residues 1, 14); also: one N-methylated residue, position given only by label N14

Kd (c-Met-Fc chimera protein [1]): 220 nM
koff (c-Met-Fc chimera protein [1]): 0.006 s⁻¹
kon (c-Met-Fc chimera protein [1]): 27000 M⁻¹ s⁻¹
Binder: {CH2CO}-YRQFNRR[NMeT]HEVWNLDCG (thioether N-16) [D4-3-N8]

Kd (c-Met-Fc chimera protein [1]): 350 nM
koff (c-Met-Fc chimera protein [1]): 0.0051 s⁻¹
kon (c-Met-Fc chimera protein [1]): 15000 M⁻¹ s⁻¹
Binder: {CH2CO}-YRQFNRRTHE[NMeV]WNLDCG (thioether N-16) [N11, N-methylated D4-3 peptide]
